IntAct's records for PubMed 31217420

B1: Acid sphingomyelinase-like phosphodiesterase 3b (Homo sapiens), Q92485-2 (parent)
chain: MRLLAWLIFLANWGGARAEPGKFWHIADLHLDPDYKVSKDPFQVCPSAGSQPVPDAGPWGDYLCDSPWALINSSIYAMKEIEPEPDFILWTGDDTPHVPDEKLGEAAVLEIVERLTKLIREVFPDTKVYAALGNHDFHPKNQFPAGSNNIYNQIAELWKPWLSNESIALFKKGAFYCEKLPGPSGAGRIVVLNTNLYYTSNALTADMADPGQQFQWLEDVLTDASKAGDMVYIVGHVPPGFFEKTQNKAWFREGFNEKYLKVVRKHHRVIAGQFFGHHHTDSFRMLYDDAGVPISAMFITPGVTPWKTTLPGVVNGANNPAIRVFEYDRATLSLKVRSPAEARGGGWEGLKCITTFPHSQLIHLPLTTEPQEG

Variants of: B1
Details: with INSR

| effect of a mutation on the interaction | Variant |
| --- | --- |
| with no effect | MRLLAWLIFLANWGGARAEPGKFWHIADLHLDPDYKVSKDPFQVCPSAGSQPVPDAGPWGDYLCDSPWALINSSIYAMKEIEPEPDFILWTGDDTPHVPDEKLGEAAVLEIVERLTKLIREVFPDTKVYAALGNADFHPKNQFPAGSNNIYNQIAELWKPWLSNESIALFKKGAFYCEKLPGPSGAGRIVVLNTNLYYTSNALTADMADPGQQFQWLEDVLTDASKAGDMVYIVGHVPPGFFEKTQNKAWFREGFNEKYLKVVRKHHRVIAGQFFGHHHTDSFRMLYDDAGVPISAMFITPGVTPWKTTLPGVVNGANNPAIRVFEYDRATLSLKVRSPAEARGGGWEGLKCITTFPHSQLIHLPLTTEPQEG [H135A] |

Variants of: B1
Details: with INSR
Remark: another data set of the same source

| effect of a mutation on the interaction | Variant |
| --- | --- |
| with no effect | MRLLAWLIFLANWGGARAEPGKFWHIADLHLDPDYKVSKDPFQVCPSAGSQPVPDAGPWGDYLCDSPWALINSSIYAMKEIEPEPDFILWTGDDTPHVPDEKLGEAAVLEIVERLTKLIREVFPDTKVYAALGNADFHPKNQFPAGSNNIYNQIAELWKPWLSNESIALFKKGAFYCEKLPGPSGAGRIVVLNTNLYYTSNALTADMADPGQQFQWLEDVLTDASKAGDMVYIVGHVPPGFFEKTQNKAWFREGFNEKYLKVVRKHHRVIAGQFFGHHHTDSFRMLYDDAGVPISAMFITPGVTPWKTTLPGVVNGANNPAIRVFEYDRATLSLKVRSPAEARGGGWEGLKCITTFPHSQLIHLPLTTEPQEG [H135A] |

Variants of: B1
Details: with CAV1, Q03135-1
Sequence of CAV1, Q03135-1 (Q03135 whole entry): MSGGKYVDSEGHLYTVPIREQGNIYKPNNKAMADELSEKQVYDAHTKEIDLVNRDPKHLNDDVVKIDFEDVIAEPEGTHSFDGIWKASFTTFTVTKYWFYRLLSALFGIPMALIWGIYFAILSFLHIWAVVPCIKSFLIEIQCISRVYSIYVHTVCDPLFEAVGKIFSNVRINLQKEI

| effect of a mutation on the interaction | Variant |
| --- | --- |
| with no effect | MRLLAWLIFLANWGGARAEPGKFWHIADLHLDPDYKVSKDPFQVCPSAGSQPVPDAGPWGDYLCDSPWALINSSIYAMKEIEPEPDFILWTGDDTPHVPDEKLGEAAVLEIVERLTKLIREVFPDTKVYAALGNADFHPKNQFPAGSNNIYNQIAELWKPWLSNESIALFKKGAFYCEKLPGPSGAGRIVVLNTNLYYTSNALTADMADPGQQFQWLEDVLTDASKAGDMVYIVGHVPPGFFEKTQNKAWFREGFNEKYLKVVRKHHRVIAGQFFGHHHTDSFRMLYDDAGVPISAMFITPGVTPWKTTLPGVVNGANNPAIRVFEYDRATLSLKVRSPAEARGGGWEGLKCITTFPHSQLIHLPLTTEPQEG [H135A] |
